Experimental data reported in patent publication US20090252748A1.

Assays:
[1] = molecular target: CD32; assay: CD32 binding assay, format not described
[2] = molecular target: human Sp35 protein expressed on transfected cells (human) (UniProt Q96FE5); assay: FACS, live human LINGO-1 transfected 293 cells, PE-labelled secondary antibody without primary antibody, FL2-H; Cell only 5.81 [panel 2nd Ab only]
[3] = molecular target: human Sp35 protein expressed on transfected cells (human) (UniProt Q96FE5); assay: FACS, live human LINGO-1 transfected 293 cells, PE-labelled secondary antibody without primary antibody, FL2-H; Cell only 4.47 [panel 2nd Ab only]
[4] = molecular target: human Sp35 protein expressed on transfected cells (human) (UniProt Q96FE5); assay: FACS, live human LINGO-1 transfected 293 cells, PE-labelled secondary antibody without primary antibody, FL2-H; Cell only 4.71 [panel 2nd Ab only]
[5] = molecular target: human Sp35 protein expressed on transfected cells (human) (UniProt Q96FE5); assay: FACS, live human LINGO-1 transfected 293 cells, PE-labelled secondary antibody without primary antibody, FL2-H; Cell only 0.94 [panel 2nd Ab only]

human Sp35 protein expressed on transfected cells (human), sequence (Q96FE5 40-620): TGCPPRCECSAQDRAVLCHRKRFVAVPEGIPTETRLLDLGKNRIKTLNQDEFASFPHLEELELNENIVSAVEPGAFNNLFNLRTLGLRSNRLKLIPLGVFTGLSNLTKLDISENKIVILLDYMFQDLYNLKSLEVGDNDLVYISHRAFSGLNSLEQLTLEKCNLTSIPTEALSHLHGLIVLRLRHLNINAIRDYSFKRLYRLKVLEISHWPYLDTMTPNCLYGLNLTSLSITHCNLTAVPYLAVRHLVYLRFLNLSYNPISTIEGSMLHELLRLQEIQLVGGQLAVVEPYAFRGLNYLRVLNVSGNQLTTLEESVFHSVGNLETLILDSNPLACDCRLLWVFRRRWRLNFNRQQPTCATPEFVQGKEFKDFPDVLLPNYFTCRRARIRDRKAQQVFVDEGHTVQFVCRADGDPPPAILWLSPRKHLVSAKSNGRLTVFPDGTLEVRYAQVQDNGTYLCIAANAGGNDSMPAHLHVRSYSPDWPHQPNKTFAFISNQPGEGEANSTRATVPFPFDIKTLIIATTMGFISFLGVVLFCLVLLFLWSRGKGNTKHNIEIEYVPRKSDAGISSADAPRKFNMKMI

| Substance | IC50 [1] [µg/mL] | (FL2-H) Mean [2] | (FL2-H) Geom. Mean [3] | (FL2-H) Median [4] | number over the marker gate of the FL2-H histogram [5] |
| --- | --- | --- | --- | --- | --- |
| Li33Ig2 agly (antibody) | 25 |  |  |  |  |
| Li33Ig2 wt (antibody) | 4.3 |  |  |  |  |
| 2nd Ab only (PE-labelled secondary antibody without primary antibody) |  | 8.78 | 6.6 | 6.76 | 5.52 |
